Assay results taken from patent US20260242478A1 (published 2026).

What was measured:
[1] = molecular target: T1, Anti-CD28 Fab (SEQ ID NOs: 696, 697); assay: phage binding ELISA on anti-CD28 Fab plate; competitor: CD28 antigen pre-incubated in the wells
T1 construct: The Fab was biotinylated and captured on neutravidin coated plates in the phage ELISA
T1 sequence (VH, as listed by the source, chain 1 of 2): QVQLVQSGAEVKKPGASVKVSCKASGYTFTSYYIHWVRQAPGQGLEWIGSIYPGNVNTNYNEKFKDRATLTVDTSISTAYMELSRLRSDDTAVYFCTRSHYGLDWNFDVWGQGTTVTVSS
T1 sequence (VL, as listed by the source, chain 2 of 2): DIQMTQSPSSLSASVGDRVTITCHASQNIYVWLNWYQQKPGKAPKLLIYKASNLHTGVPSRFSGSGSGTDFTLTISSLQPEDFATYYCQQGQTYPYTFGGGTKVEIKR
Experimental: (§1) After panning, phage infected bacteria were plated out and colonies picked into 96 well blocks. Clonal phage was then amplified and separated from bacterial cells via centrifugation.
(§2) Clonal phage were harvested as crude supematants and screened via standard ELISAs. […] Prior to the addition of clonal phage, wells were incubated with blocking buffer and CD28 antigen or blocking buffer alone. Without washing or aspirating, clonal phage supematants were then added to the wells and incubated for a short time. Wells were then washed followed by detection of bound phage using a horse radish conjugated anti-M13 antibody. Clonal phage of interest were then sent for sequence analysis.

[2] = molecular target: T1, Anti-CD28 Fab (SEQ ID NOs: 696, 697); assay: phage binding ELISA; biotinylated anti-CD28 Fab on neutravidin plate, bound phage detected with anti-M13 HRP;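 also: crude supernatants of clonal phage screened, wells pretreated with blocking buffer with or without CD28 antigen before brief phage incubation, washed, then bound phage detected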
Experimental: as §1, §2

[3] = molecular target: T2, Anti-CD28 Fab (SEQ ID NOs: 696, 697); assay: phage ELISA; biotinylated anti-CD28 Fab on neutravidin plate, clonal phage supernatant, anti-M13 HRP detection;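 also: crude supernatants of single phage clones picked after panning were screened for binding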
T2 construct: In the phage ELISA the Fab was biotinylated and captured on neutravidin coated plates
T2 sequence (VH, as listed by the source, chain 1 of 2): as the sequence (VH, as listed by the source, chain 1 of 2) above
T2 sequence (VL, as listed by the source, chain 2 of 2): as the sequence (VL, as listed by the source, chain 2 of 2) above

[4] = molecular target: T2, Anti-CD28 Fab (SEQ ID NOs: 696, 697); assay: phage ELISA on anti-CD28 Fab pre-incubated with CD28 antigen as competitor, anti-M13 HRP detection
[5] = molecular target: T3, Anti-CD28 Fab (SEQ ID NOs: 696, 697); assay: phage ELISA; biotinylated anti-CD28 Fab on neutravidin plate, clonal phage supernatant, anti-M13 HRP detection; remark: listed apart in the source;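 also: crude supernatants of single phage clones picked after panning were screened for binding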
T3 construct: In the phage ELISA the Fab was biotinylated and captured on neutravidin coated plates
T3 sequence (VH, as listed by the source, chain 1 of 2): as the sequence (VH, as listed by the source, chain 1 of 2) above
T3 sequence (VL, as listed by the source, chain 2 of 2): as the sequence (VL, as listed by the source, chain 2 of 2) above

[6] = molecular target: T3, Anti-CD28 Fab (SEQ ID NOs: 696, 697); assay: phage ELISA; Fab-coated wells pre-incubated with CD28 antigen as competitor, anti-M13 HRP detection;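 also: crude clonal phage supernatants screened by ELISA, comparing wells pre-treated with CD28 antigen in blocker against wells given blocker only, bound phage read via HRP-linked anti-M13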
Experimental: as §1, §2

[7] = molecular target: Anti-CD28 Fab (SEQ ID NOs: 696, 697); assay: phage binding ELISA; biotinylated anti-CD28 Fab on neutravidin plate, clonal phage supernatant, anti-M13 HRP detection
Target sequence in this assay (VH, as listed by the source, chain 1 of 2): as the sequence (VH, as listed by the source, chain 1 of 2) above
Target sequence in this assay (VL, as listed by the source, chain 2 of 2): as the sequence (VL, as listed by the source, chain 2 of 2) above

[8] = molecular target: Anti-CD28 Fab (SEQ ID NOs: 696, 697); assay: phage binding ELISA on anti-CD28 Fab; wells first incubated with CD28 antigen as competitor
Target sequence in this assay (VH, as listed by the source, chain 1 of 2): as the sequence (VH, as listed by the source, chain 1 of 2) above
Target sequence in this assay (VL, as listed by the source, chain 2 of 2): as the sequence (VL, as listed by the source, chain 2 of 2) above
Experimental: as §1, §2

B1: Phage-759 (peptide)
peptide: YCDGHAEEYMSKCL
notes: Tested as clonal phage supernatant
Anti-CD28 Fab signal in the presence of CD28 [1]: 0.09
Anti-CD28 Fab (SEQ ID NOs: 696, 697) signal [2]: 1.9

B2: Phage-758 (peptide)
peptide: YCDGHEPQYLEKCL
notes: as for B1
Anti-CD28 Fab signal in the presence of CD28 [1]: 0.08
Anti-CD28 Fab (SEQ ID NOs: 696, 697) signal [2]: 1.9

B3: Phage-765 (peptide)
peptide: YCDGHRPEYMEKCL
notes: as for B1
Phage binding ELISA, Anti-CD28 Fab signal [3]: 1.9
Phage binding ELISA, Anti-CD28 Fab signal in the presence of CD28 [4]: 0.06

B4: Phage-772 (peptide)
peptide: YCDGHIDEYLQKCL
notes: as for B1
Phage binding ELISA, Anti-CD28 Fab signal [3]: 1.88
Phage binding ELISA, Anti-CD28 Fab signal in the presence of CD28 [4]: 0.06

B5: Phage-748 (peptide)
peptide: YCDGHLNEYMEKCL
notes: tested as crude clonal phage supernatant
Anti-CD28 Fab signal (phage binding ELISA) [5]: 1.91
Anti-CD28 Fab signal in the presence of CD28 (phage binding ELISA) [6]: 0.06

B6: Phage-769 (peptide)
peptide: YCDGHSPEYMPKCL
notes: as for B1
Phage binding ELISA, Anti-CD28 Fab signal [3]: 1.89
Phage binding ELISA, Anti-CD28 Fab signal in the presence of CD28 [4]: 0.08

B7: Phage-746 (peptide)
peptide: YCAGHMPEYIDKCL
notes: as for B5
Anti-CD28 Fab signal (phage binding ELISA) [5]: 1.92
Anti-CD28 Fab signal in the presence of CD28 (phage binding ELISA) [6]: 0.06

B8: Phage-745 (peptide)
peptide: YCEGHSMEYMAKCL
notes: as for B5
Anti-CD28 Fab signal (phage binding ELISA) [5]: 1.92
Anti-CD28 Fab signal in the presence of CD28 (phage binding ELISA) [6]: 0.07

B9: Phage-730 (peptide)
peptide: YCDGHLVEYMSKCL
Anti-CD28 Fab signal (phage binding ELISA) [7]: 1.95
Anti-CD28 Fab signal in the presence of CD28 [8]: 0.08

B10: Phage-727 (peptide)
peptide: YCDGHSSEYMIKCL
Anti-CD28 Fab signal (phage binding ELISA) [7]: 1.95
Anti-CD28 Fab signal in the presence of CD28 [8]: 0.06

B11: Phage-733 (peptide)
peptide: YCAGHLEIYMNKCL
Anti-CD28 Fab signal (phage binding ELISA) [7]: 1.94
Anti-CD28 Fab signal in the presence of CD28 [8]: 0.07

B12: Phage-735 (peptide)
peptide: YCEGHLPIYLSKCL
Anti-CD28 Fab signal (phage binding ELISA) [7]: 1.94
Anti-CD28 Fab signal in the presence of CD28 [8]: 0.08

B13: Phage-737 (peptide)
peptide: YCSGHAPEYMAKCL
notes: as for B5
Anti-CD28 Fab signal (phage binding ELISA) [5]: 1.94
Anti-CD28 Fab signal in the presence of CD28 (phage binding ELISA) [6]: 0.06

B14: Phage-729 (peptide)
peptide: YCDGHSAEYMQKCL
Anti-CD28 Fab signal (phage binding ELISA) [7]: 1.95
Anti-CD28 Fab signal in the presence of CD28 [8]: 0.07

B15: Phage-753 (peptide)
peptide: YCDGHLDIYLAKCL
notes: as for B1
Anti-CD28 Fab signal in the presence of CD28 [1]: 0.08
Anti-CD28 Fab (SEQ ID NOs: 696, 697) signal [2]: 1.91

B16: Phage-771 (peptide)
peptide: YCEGHSPEYMWKCL
notes: as for B1
Phage binding ELISA, Anti-CD28 Fab signal [3]: 1.89
Phage binding ELISA, Anti-CD28 Fab signal in the presence of CD28 [4]: 0.09

B17: Phage-751 (peptide)
peptide: YCEGHLAVYMQKCL
notes: as for B1
Anti-CD28 Fab signal in the presence of CD28 [1]: 0.1
Anti-CD28 Fab (SEQ ID NOs: 696, 697) signal [2]: 1.91

B18: Phage-743 (peptide)
peptide: YCDGHSAEYLAKCL
notes: as for B5
Anti-CD28 Fab signal (phage binding ELISA) [5]: 1.93
Anti-CD28 Fab signal in the presence of CD28 (phage binding ELISA) [6]: 0.08

B19: Phage-742 (peptide)
peptide: YCDGHMPEYMEKCL
notes: as for B5
Anti-CD28 Fab signal (phage binding ELISA) [5]: 1.93
Anti-CD28 Fab signal in the presence of CD28 (phage binding ELISA) [6]: 0.09

B20: Phage-738 (peptide)
peptide: YCEGHRAEYMEKCL
notes: as for B5
Anti-CD28 Fab signal (phage binding ELISA) [5]: 1.93
Anti-CD28 Fab signal in the presence of CD28 (phage binding ELISA) [6]: 0.06

B21: Phage-728 (peptide)
peptide: YCDGHLIEYMYKCL
Anti-CD28 Fab signal (phage binding ELISA) [7]: 1.95
Anti-CD28 Fab signal in the presence of CD28 [8]: 0.09

B22: Phage-756 (peptide)
peptide: YCDGHAPEYMKKCL
notes: as for B1
Anti-CD28 Fab signal in the presence of CD28 [1]: 0.06
Anti-CD28 Fab (SEQ ID NOs: 696, 697) signal [2]: 1.9

B23: Phage-767 (peptide)
peptide: YCEGHLQEYMEKCL
notes: as for B1
Phage binding ELISA, Anti-CD28 Fab signal [3]: 1.89
Phage binding ELISA, Anti-CD28 Fab signal in the presence of CD28 [4]: 0.1

B24: Phage-747 (peptide)
peptide: YCAGHSPEFMEKCL
notes: as for B5
Anti-CD28 Fab signal (phage binding ELISA) [5]: 1.91
Anti-CD28 Fab signal in the presence of CD28 (phage binding ELISA) [6]: 0.06

B25: Phage-736 (peptide)
peptide: YCDGHASEYMWKCL
notes: as for B5
Anti-CD28 Fab signal (phage binding ELISA) [5]: 1.94
Anti-CD28 Fab signal in the presence of CD28 (phage binding ELISA) [6]: 0.06

B26: Phage-732 (peptide)
peptide: YCDGHSPEHIRKCL
Anti-CD28 Fab signal (phage binding ELISA) [7]: 1.94
Anti-CD28 Fab signal in the presence of CD28 [8]: 0.11

B27: Phage-744 (peptide)
peptide: YCDGHSPEYMTKCL
notes: as for B5
Anti-CD28 Fab signal (phage binding ELISA) [5]: 1.93
Anti-CD28 Fab signal in the presence of CD28 (phage binding ELISA) [6]: 0.07

B28: Phage-739 (peptide)
peptide: YCDGHSPDYIWKCL
notes: as for B5
Anti-CD28 Fab signal (phage binding ELISA) [5]: 1.93
Anti-CD28 Fab signal in the presence of CD28 (phage binding ELISA) [6]: 0.1

B29: Phage-763 (peptide)
peptide: YCAGHLPQYIAKCL
notes: as for B1
Phage binding ELISA, Anti-CD28 Fab signal [3]: 1.9
Phage binding ELISA, Anti-CD28 Fab signal in the presence of CD28 [4]: 0.09

B30: Phage-764 (peptide)
peptide: YCDGHLKEYMAKCL
notes: as for B1
Phage binding ELISA, Anti-CD28 Fab signal [3]: 1.9
Phage binding ELISA, Anti-CD28 Fab signal in the presence of CD28 [4]: 0.07

B31: Phage-761 (peptide)
peptide: YCAGHLEEYMDKCL
notes: as for B1
Anti-CD28 Fab signal in the presence of CD28 [1]: 0.06
Anti-CD28 Fab (SEQ ID NOs: 696, 697) signal [2]: 1.9

B32: Phage-760 (peptide)
peptide: YCDGHVEEYLYKCL
notes: as for B1
Anti-CD28 Fab signal in the presence of CD28 [1]: 0.06
Anti-CD28 Fab (SEQ ID NOs: 696, 697) signal [2]: 1.9

B33: Phage-741 (peptide)
peptide: YCMGHQPEYMQKCL
notes: as for B5
Anti-CD28 Fab signal (phage binding ELISA) [5]: 1.93
Anti-CD28 Fab signal in the presence of CD28 (phage binding ELISA) [6]: 0.08

B34: Phage-731 (peptide)
peptide: YCEGHLSQYMEKCL
Anti-CD28 Fab signal (phage binding ELISA) [7]: 1.95
Anti-CD28 Fab signal in the presence of CD28 [8]: 0.08

B35: Phage-757 (peptide)
peptide: YCDGHSKEYMHKCL
notes: as for B1
Anti-CD28 Fab signal in the presence of CD28 [1]: 0.07
Anti-CD28 Fab (SEQ ID NOs: 696, 697) signal [2]: 1.9

B36: Phage-752 (peptide)
peptide: YCEGHSSEYMEKCL
notes: as for B1
Anti-CD28 Fab signal in the presence of CD28 [1]: 0.06
Anti-CD28 Fab (SEQ ID NOs: 696, 697) signal [2]: 1.91

B37: Phage-766 (peptide)
peptide: YCDGHLPEYMGKCL
notes: as for B1
Phage binding ELISA, Anti-CD28 Fab signal [3]: 1.89
Phage binding ELISA, Anti-CD28 Fab signal in the presence of CD28 [4]: 0.11

B38: Phage-768 (peptide)
peptide: YCEGHIPEYMAKCL
notes: as for B1
Phage binding ELISA, Anti-CD28 Fab signal [3]: 1.89
Phage binding ELISA, Anti-CD28 Fab signal in the presence of CD28 [4]: 0.06

B39: Phage-749 (peptide)
peptide: YCDGHLKEYQEKCL
notes: as for B1
Anti-CD28 Fab signal in the presence of CD28 [1]: 0.09
Anti-CD28 Fab (SEQ ID NOs: 696, 697) signal [2]: 1.91

B40: Phage-770 (peptide)
peptide: YCDGHLAEYMPKCL
notes: as for B1
Phage binding ELISA, Anti-CD28 Fab signal [3]: 1.89
Phage binding ELISA, Anti-CD28 Fab signal in the presence of CD28 [4]: 0.07

B41: Phage-740 (peptide)
peptide: YCMGHAPEYMEKCL
notes: as for B5
Anti-CD28 Fab signal (phage binding ELISA) [5]: 1.93
Anti-CD28 Fab signal in the presence of CD28 (phage binding ELISA) [6]: 0.07

B42: Phage-762 (peptide)
peptide: YCAGHAPQYMEKCL
notes: as for B1
Phage binding ELISA, Anti-CD28 Fab signal [3]: 1.9
Phage binding ELISA, Anti-CD28 Fab signal in the presence of CD28 [4]: 0.08

B43: Phage-754 (peptide)
peptide: YCEGHSEEYMSKCL
notes: as for B1
Anti-CD28 Fab signal in the presence of CD28 [1]: 0.07
Anti-CD28 Fab (SEQ ID NOs: 696, 697) signal [2]: 1.91

B44: Phage-755 (peptide)
peptide: YCDGHSQEYMWKCL
notes: as for B1
Anti-CD28 Fab signal in the presence of CD28 [1]: 0.09
Anti-CD28 Fab (SEQ ID NOs: 696, 697) signal [2]: 1.9

B45: Phage-750 (peptide)
peptide: YCEGHLAQYMWKCL
notes: as for B1
Anti-CD28 Fab signal in the presence of CD28 [1]: 0.12
Anti-CD28 Fab (SEQ ID NOs: 696, 697) signal [2]: 1.91

B46: Phage-734 (peptide)
peptide: YCEGHLSEYMAKCL
Anti-CD28 Fab signal (phage binding ELISA) [7]: 1.94
Anti-CD28 Fab signal in the presence of CD28 [8]: 0.2
